Article PMC11609450, “Structure function analysis of ADP-dependent cyanobacterial phosphofructokinase reveals new phylogenetic grouping in the PFK-A family” (The Journal of Biological Chemistry, 2024)
Values belong to the molecule of their own block, whether it stands above or below them.

Columns and labels:
PFK-A1 (Sll1196) [1] = target: T1, PFK-A1 (Sll1196) (Synechocystis sp. PCC 6803, UniProt P72830); assay: coupled NADH assay (aldolase/TPI/GPDH), […] nm; global MWC fit; assay type: biochemical; conditions: read-out: PFK-A11
T1 construct: gene pfkA1

PFK-A1 (Sll1196) [2] = target: T1, PFK-A1 (Sll1196); assay: coupled NADH assay, effector test; assay type: biochemical; conditions: read-out: % residual activity at 1 mM
PFK-A2 (Sll0745) = target: T2, PFK-A2 (Sll0745) (Synechocystis sp. PCC 6803, UniProt Q55988); assay: coupled NADH assay (aldolase/TPI/GPDH), […] nm; global MWC fit; assay type: biochemical
T2 construct: gene pfkA2

[3] = target: T3, PFK-A1 from Crocosphaera subtropica (Crocosphaera subtropica, UniProt B1WQ98); assay: coupled NADH assay, phosphate donor specificity; assay type: biochemical; conditions: 1 mM F6P, 2 mM ADP, 10 mM MgCl2, pH 7.7, 30 °C
T3 construct: gene pfkA1; codon-optimized gene in pET15b, His tag, E. coli Rosetta (DE3), IMAC
T3 sequence (B1WQ98 1-360): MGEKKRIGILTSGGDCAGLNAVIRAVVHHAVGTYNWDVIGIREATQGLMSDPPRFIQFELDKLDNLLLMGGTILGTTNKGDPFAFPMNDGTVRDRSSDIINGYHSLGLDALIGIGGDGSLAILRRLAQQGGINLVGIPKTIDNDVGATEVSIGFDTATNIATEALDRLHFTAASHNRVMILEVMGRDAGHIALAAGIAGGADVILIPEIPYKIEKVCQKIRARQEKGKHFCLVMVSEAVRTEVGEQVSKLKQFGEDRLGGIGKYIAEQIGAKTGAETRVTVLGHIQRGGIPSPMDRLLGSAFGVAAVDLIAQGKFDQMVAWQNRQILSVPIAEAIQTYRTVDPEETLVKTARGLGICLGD

[4] = target: T4, PFK-A1 from A. brasilense (Azospirillum brasilense, UniProt A0A560AK87); assay: coupled NADH assay, phosphate donor specificity; assay type: biochemical; conditions: 1 mM F6P, 2 mM ADP, 10 mM MgCl2, pH 7.7, 30 °C
T4 construct: gene pfkA; codon-optimized gene in pET15b, His tag, E. coli Rosetta (DE3), IMAC
T4 sequence (A0A560AK87 1-361): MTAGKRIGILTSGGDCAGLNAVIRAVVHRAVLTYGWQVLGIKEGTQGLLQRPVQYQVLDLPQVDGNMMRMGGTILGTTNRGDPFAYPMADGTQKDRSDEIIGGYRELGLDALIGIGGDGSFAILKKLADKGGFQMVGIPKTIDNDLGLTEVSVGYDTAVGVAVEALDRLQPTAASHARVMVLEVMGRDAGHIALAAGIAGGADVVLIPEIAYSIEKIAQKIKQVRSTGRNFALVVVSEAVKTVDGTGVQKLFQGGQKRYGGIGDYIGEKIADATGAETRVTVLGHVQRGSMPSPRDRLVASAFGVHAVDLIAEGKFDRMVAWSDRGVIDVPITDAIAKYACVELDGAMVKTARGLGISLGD

[5] = target: T5, PFK-A2 from M. aeruginosa PCC 9808 (Microcystis aeruginosa, UniProt I4HJC6); assay: coupled NADH assay, phosphate donor specificity; assay type: biochemical; conditions: 1 mM F6P, 2 mM ADP, 10 mM MgCl2, pH 7.7, 30 °C
T5 construct: gene pfkA; codon-optimized gene in pET15b, His tag, E. coli Rosetta (DE3), IMAC
T5 sequence (I4HJC6 1-402): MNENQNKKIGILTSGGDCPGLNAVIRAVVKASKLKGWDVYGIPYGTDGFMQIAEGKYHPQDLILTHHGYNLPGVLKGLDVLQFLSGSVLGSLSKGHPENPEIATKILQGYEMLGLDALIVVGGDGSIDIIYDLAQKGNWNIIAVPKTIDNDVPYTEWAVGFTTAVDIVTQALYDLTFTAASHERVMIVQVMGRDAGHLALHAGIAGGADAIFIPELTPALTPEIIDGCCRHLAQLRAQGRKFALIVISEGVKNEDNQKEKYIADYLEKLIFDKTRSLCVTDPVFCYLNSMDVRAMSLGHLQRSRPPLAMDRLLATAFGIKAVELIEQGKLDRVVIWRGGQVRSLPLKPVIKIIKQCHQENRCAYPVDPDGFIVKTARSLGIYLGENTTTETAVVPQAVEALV

[6] = target: the molecule itself; assay: SEC; HiLoad 16/600 Superdex 200 prep grade, 50 mM HEPES/NaOH pH 7.5 (RT), 300 mM NaCl, 3 mM dithiothreitol, 1 ml/min; calibrated with five standard proteins; PFK-A1 applied at 5 mg/ml (62.5 uM), PFK-A2 at 7 mg/ml (87.5 uM); self-association
[7] = target: the molecule itself; assay: native MS; nanoESI, Exactive Plus EMR Orbitrap, positive EMR mode; protein rebuffered to 200 mM or 1 M ammonium acetate pH 6.8, 5 uM stock; PFK-A1 also with F6P; self-association
purified protein = substrate: Nc1ncnc2c1ncn2[C@@H]1O[C@H](COP(=O)(O)OP(=O)(O)O)[C@@H](O)[C@H]1O; assay: purified protein; assay type: biochemical, Synechocystis sp. PCC 6803; conditions: MWC R-state constant, co-substrate F6P

Ki (PFK-A1 (Sll1196) [1]): 110 µM
Molecule: O=C(O)[C@H](O)COP(=O)(O)O [3PG]

remaining activity at 1000 µM (PFK-A1 (Sll1196) [2]): 96% | Ki (PFK-A2 (Sll0745)): 200 µM
Molecule: Nc1ncnc2c1ncn2[C@@H]1O[C@H](COP(=O)(O)OP(=O)(O)OP(=O)(O)O)[C@@H](O)[C@H]1O [ATP]

remaining activity at 1000 µM (PFK-A1 (Sll1196) [2]): 86%
Molecule: C=C(OP(=O)(O)O)C(=O)O [PEP]

The next lines start with the molecule.

Molecule: Nc1ncnc2c1ncn2[C@@H]1O[C@H](COP(=O)(O)OP(=O)(O)O)[C@@H](O)[C@H]1O [ADP]
coupled NADH assay, phosphate donor specificity [3]: all three tested enzymes were specific for ADP and showed no activity with ATP | coupled NADH assay, phosphate donor specificity [4]: all three tested enzymes were specific for ADP and showed no activity with ATP | coupled NADH assay, phosphate donor specificity [5]: all three tested enzymes were specific for ADP and showed no activity with ATP

B1: Synechocystis sp. PCC 6803 ADP-dependent phosphofructokinase PFK-A1 (Sll1196) (enzyme, UniProt P72830 1-361, looked up)
chain: MGEIKRIGILTSGGDCAGLNAVIRSVVHHAIGTYGWEVIGIQEATQGLMENPSKAIALHRDNIDHLLMMGGTFLGTTNKGNPFAFPMADGTVRDRTEDIIAGYRQLGLDALIGIGGDGSLAILRRIAQQGGINLVGIPKTIDNDVGATEISIGFDTATNIATEALDRLHFTAASHNRVMVLEVMGRDAGHIALAAGIGGGADIILIPEIPYRIQSVCNKIRQRQAEGKNFCLVMVSEAVRTELGDQVKQIQQFGEDRYGGIGKYIAEQIAQRTGAETRVTVLGHIQRGGIPSPFDRLLGSVFGVAAVDLIAEGKFDHMVAWRNRQTISVPIEEAIQTYQTVQLDGTLVKTARGLGICLGND
notes: Phosphofructokinase isoenzyme PFK-A1 (sll1196) of Synechocystis sp; PCC 6803, amplified from genomic DNA with primers from the start codon (NdeI) to the stop codon (BamHI); calculated mass 40.47 kDa; Oligomeric state differs by method (dimer by SEC, mainly tetramer by native MS), so copies is left empty; No tag cleavage is described; also called ADP-PFK-A1; source: E. coli Rosetta (DE3), pET15b, …
stoichiometry N [6]: 2 | stoichiometry N [7]: 4 | Km (purified protein; 10 mM MgCl2, pH 7.7, 30 °C): 0.14 (±0.01) mM | kcat (purified protein; 10 mM MgCl2, pH 7.7, 30 °C): 5.9 s⁻¹

B2: Synechocystis sp. PCC 6803 ADP-dependent phosphofructokinase PFK-A2 (Sll0745) (enzyme, UniProt Q55988 1-384, looked up)
chain: MGTKRIGILTSGGDCPGLNAVIRAVVKASALKGWEVYGIPYGTDGFVEVAHGKYQAEDLLLTKHGYALPGMLKGLDVLQFLSGSVLGSLSKGHPEQPAIAEAILKGYAILDLEALIVIGGDGSLDIIYDLAQKGNWHIIAIPKTIDNDVPFTDLAVGFSTAVDIVTQALYDLTFTAASHERIIIVQVMGRDAGHLTLHAGIAGGADIILIPEITPCLTSEIIRNCCYQLMNLRKSGRHFALIVISEGVHDQNNKKNKHIADYLAEEISETSQHLCDIKDPAFCDLISLDIRATTLGHLQRSGTPLSFDRLLATVFGIRAVELIEQEIYDQVVIWRSGKVEHADLKPIISIIKECHQENRCPFPVDRDGFMVKTAKSLGIYLGED
notes: Phosphofructokinase isoenzyme PFK-A2 (sll0745) of Synechocystis sp; PCC 6803, amplified from genomic DNA with primers from the start codon (NdeI) to the stop codon (BamHI); calculated mass 43.64 kDa; Mainly dimer by SEC and native MS, with a lesser tetramer by native MS, so copies is left empty; No tag cleavage is described; also called ADP-PFK-A2; source: E. coli Rosetta (DE3), pET15b, purified …
stoichiometry N [6]: 2 | stoichiometry N [7]: 4 | Km (purified protein; 5 mM MgCl2, pH 7.7, 30 °C): 0.17 (±0.03) mM | kcat (purified protein; 5 mM MgCl2, pH 7.7, 30 °C): 12.3 s⁻¹
